Consider 4 molecules from paper PMC11551953, “Probing Electrostatic and Hydrophobic Associative Interactions in Cells” (The Journal of Physical Chemistry. B, 2024).

In one assay the target is GFP(EEE)4. The assay can be described thus: other fluorescence titration; probe (1 μM) with BSA titrated up to 100 mg/mL (2 mM) in a 96-well plate; ratio of excitation at 405 nm/488 nm, emission 520 nm; 10 mM NaPi, 100 mM KCl, pH 7.4; room temperature; fitted to a Hill function; KD of BSA (+92e) with GFP(EEE)4 called apparent.
The target of another assay is GFP(ESE)4. The description is as above.
The next assay concerns the target GFP(ESS)4. The assay is described as above.
The next assay has as its target GFP(KLL)4. The description is as above.
Assay [1] addresses cationic and hydrophobic probes. The assay is described as above.
Assay [2] addresses T1, wtBSA(-17e), bovine serum albumin (bovine, UniProt P02769 25-607).
T1 construct: bovine serum albumin, wild type; also called wtBSA (−18e); BSA(-18e); source: bought: Sigma-Aldrich; further purified by repeated concentration on an Amicon 10 kD cutoff filter
Description: other fluorescence titration; BSA titrated to 1 uM probe (His-tag removed) in a 96-well plate; excitation ratio 405 nm/488 nm at 520 nm emission; 10 mM NaPi, 100 mM KCl, pH 7.4, room temperature; ratio against BSA concentration fitted to a Hill function (k = KD, n = Hill coefficient); errors are errors in the fits. The following applies: both partners purified.

Where no end group is shown, it is not given here.

T1 sequence (P02769 25-607): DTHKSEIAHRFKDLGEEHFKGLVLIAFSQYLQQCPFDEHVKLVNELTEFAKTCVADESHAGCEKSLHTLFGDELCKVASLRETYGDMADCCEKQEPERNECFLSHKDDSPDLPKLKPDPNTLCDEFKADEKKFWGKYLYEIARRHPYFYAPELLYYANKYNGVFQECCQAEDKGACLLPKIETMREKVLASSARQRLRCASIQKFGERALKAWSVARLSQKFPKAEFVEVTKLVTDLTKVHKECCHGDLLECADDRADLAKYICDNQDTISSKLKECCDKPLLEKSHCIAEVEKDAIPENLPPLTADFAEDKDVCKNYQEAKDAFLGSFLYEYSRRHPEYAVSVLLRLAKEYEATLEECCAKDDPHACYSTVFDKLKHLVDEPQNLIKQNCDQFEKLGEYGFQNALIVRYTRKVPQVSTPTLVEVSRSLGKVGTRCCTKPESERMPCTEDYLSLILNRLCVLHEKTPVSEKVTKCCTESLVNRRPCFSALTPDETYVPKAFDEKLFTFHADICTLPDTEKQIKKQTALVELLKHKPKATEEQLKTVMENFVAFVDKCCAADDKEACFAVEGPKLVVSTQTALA

Take “bovine serum albumin (BSA), wild type (from UniProt P02769 25-607) (natural protein)”: the Kd in the assay with GFP(EEE)4 is more than 1 mM; with GFP(ESE)4 it was more than 1 mM; with GFP(ESS)4, more than 1 mM; with GFP(KLL)4, 100 to 200 µM; in assay [1], 100 to 200 µM.

B1: GFP(KLK)4 (other)
chain: KLKKLKKLKKLK
modifications: also: fused to cpGFP reporter, not in chain
On to B1, for which the Kd in assay [2] came out at 220 µM.

B2: GFP(KKK)4 (other)
chain: KKKKKKKKKKKK
modifications: also: fused to cpGFP reporter, not in chain
Regarding B2, the Kd in assay [2] is 170 µM.

B3: GFP(KLL)4 (other)
chain: KLLKLLKLLKLL
modifications: also: fused to cpGFP reporter, not in chain
On to B3, for which the Kd in assay [2] was found to be 110 µM.
